Experimental data as given in IntAct's records for PubMed 18583988.

Biological target: csk21_human CSNK2A1 (UniProt P68400)
Sequence of UniProt P68400 (P68400 whole entry, looked up): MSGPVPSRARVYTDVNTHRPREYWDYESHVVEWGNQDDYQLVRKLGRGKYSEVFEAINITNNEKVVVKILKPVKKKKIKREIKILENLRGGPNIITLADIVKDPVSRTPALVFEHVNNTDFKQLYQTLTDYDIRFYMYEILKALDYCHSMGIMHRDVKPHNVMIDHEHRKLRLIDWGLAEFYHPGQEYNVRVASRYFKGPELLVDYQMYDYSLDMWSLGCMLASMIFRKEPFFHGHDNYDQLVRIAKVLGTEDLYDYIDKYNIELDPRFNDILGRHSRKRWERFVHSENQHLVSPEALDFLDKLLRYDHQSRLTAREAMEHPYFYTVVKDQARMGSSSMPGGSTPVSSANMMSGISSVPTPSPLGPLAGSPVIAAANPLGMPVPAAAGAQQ

Row | effect of a mutation on the interaction | Substance
1 | disrupting interaction | Mediator of DNA damage checkpoint protein 1 (Homo sapiens), Q14676 T301A
2 | disrupting interaction | Mediator of DNA damage checkpoint protein 1 (Homo sapiens), Q14676 T331A
